± gives the standard deviation of the averaged measurements.
Test system: Sindbis virus TE/5'2J-GFP
Test: percent infected (GFP+ in RFP+ ISG-expressing cells); higher = more infection (less antiviral activity)
Method: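 Confirmatory testing of 87 ISGs. Triplicate wells of BHK/HA-Zeo (control) or BHK/NZAP-Zeo (ZAP) cells were transduced with lentiviruses co-expressing a human ISG plus TagRFP, then infected 48 h later with SINV TE/5'2J-GFP (moi 5). The % GFP+ cells among RFP+ cells was measured by flow cytometry at 8 h post infection. Fluc lentivirus served as control. Three independent experiments.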

[1] = experiment: confirmatory screen 1, BHK/HA-Zeo (control)
[2] = experiment: confirmatory screen 1, BHK/NZAP-Zeo (ZAP)
[3] = experiment: confirmatory screen 2, BHK/HA-Zeo (control)
[4] = experiment: confirmatory screen 2, BHK/NZAP-Zeo (ZAP)
[5] = experiment: confirmatory screen 3, BHK/HA-Zeo (control)
[6] = experiment: confirmatory screen 3, BHK/NZAP-Zeo (ZAP)
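Note: Interferon-defective BHK-21 derivatives, ZAP line overexpressing the rat ZAP N-terminal zinc finger domain fused to Zeocin resistance, GFP scored within live singlet TagRFP+ cells.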

Substance	percent infected [1]	percent infected [2]	percent infected [3]	percent infected [4]	percent infected [5]	percent infected [6]
MKEDCLPSSHVPISDSKSIQKSELLGLLKTYNCYHEGKSFQLRHREEEGTLIIEGLLNIAWGLRRPIRLQMQDDREQVHLPSTSWMPRRPSCPLKEPSPQNGNITAQGPSIQPVHKAESSTDSSGPLEEAEEAPQLMRTKSDASCMSQRRPKCRAPGEAQRIRRHRFSINGHFYNHKTSVFTPAYGSVTNVRVNSTMTTLQVLTLLLNKFRVEDGPSEFALYIVHESGERTKLKDCEYPLISRILHGPCEKIARIFLMEADLGVEVPHEVAQYIKFEMPVLDSFVEKLKEEEEREIIKLTMKFQALRLTMLQRLEQLVEAK [RASSF4]	80.1 ± 2.3%	56.3 ± 1.3%	94.73 ± 0.66%	94.93 ± 0.39%	89.1 ± 0.9%	89.9 ± 1.3%
MEKGPVRAPAEKPRGARCSNGFPERDPPRPGPSRPAEKPPRPEAKSAQPADGWKGERPRSEEDNELNLPNLAAAYSSILSSLGENPQRQGLLKTPWRAASAMQFFTKGYQETISDVLNDAIFDEDHDEMVIVKDIDMFSMCEHHLVPFVGKVHIGYLPNKQVLGLSKLARIVEIYSRRLQVQERLTKQIAVAITEALRPAGVGVVVEATHMCMVMRGVQKMNSKTVTSTMLGVFREDPKTREEFLTLIRS [GCH1]	95.976 ± 0.021%	74 ± 2%	95.09 ± 0.34%	93.4 ± 1.6%	92.6 ± 0.98%	92.19 ± 0.15%
MHLCGGNGLLTQTDPKEQQRQLKKQKNRAAAQRSRQKHTDKADALHQQHESLEKDNLALRKEIQSLQAELAWWSRTLHVHERLCPMDCASCSAPGLLGCWDQAEGLLGPGPQGQHGCREQLELFQTPGSCYPAQPLSPGPQPHDSPSLLQCPLPSLSLGPAVVAEPPVQLSPSPLLFASHTGSSLQGSSSKLSALQPSLTAQTAPPQPLELEHPTRGKLGSSPDNPSSALGLARLQSREHKPALSAATWQGLVVDPSPHPLLAFPLLSSAQVHF [BATF2]	90.1 ± 2.7%	63.14 ± 0.42%	95.85 ± 0.33%	94.92 ± 0.24%	93.14 ± 0.36%	91.04 ± 0.55%
MAVMEMACPGAPGSAVGQQKELPKAKEKTPPLGKKQSSVYKLEAVEKSPVFCGKWEILNDVITKGTAKEGSEAGPAAISIIAQAECENSQEFSPTFSERIFIAGSKQYSQSESLDQIPNNVAHATEGKMARVCWKGKRRSKARKKRKKKSSKSLAHAGVALAKPLPRTPEQESCTIPVQEDESPLGAPYVRNTPQFTKPLKEPGLGQLCFKQLGEGLRPALPRSELHKLISPLQCLNHVWKLHHPQDGGPLPLPTHPFPYSRLPHPFPFHPLQPWKPHPLESFLGKLACVDSQKPLPDPHLSKLACVDSPKPLPGPHLEPSCLSRGAHEKFSVEEYLVHALQGSVSSGQAHSLTSLAKTWAARGSRSREPSPKTEDNEGVLLTEKLKPVDYEYREEVHWATHQLRLGRGSFGEVHRMEDKQTGFQCAVKKVRLEVFRAEELMACAGLTSPRIVPLYGAVREGPWVNIFMELLEGGSLGQLVKEQGCLPEDRALYYLGQALEGLEYLHSRRILHGDVKADNVLLSSDGSHAALCDFGHAVCLQPDGLGKSLLTGDYIPGTETHMAPEVVLGRSCDAKVDVWSSCCMMLHMLNGCHPWTQFFRGPLCLKIASEPPPVREIPPSCAPLTAQAIQEGLRKEPIHRVSAAELGGKVNRALQQVGGLKSPWRGEYKEPRHPPPNQANYHQTLHAQPRELSPRAPGPRPAEETTGRAPKLQPPLPPEPPEPNKSPPLTLSKEESGMWEPLPLSSLEPAPARNPSSPERKATVPEQELQQLEIELFLNSLSQPFSLEEQEQILSCLSIDSLSLSDDSEKNPSKASQSSRDTLSSGVHSWSSQAEARSSSWNMVLARGRPTDTPSYFNGVKVQIQSLNGEHLHIREFHRVKVGDIATGISSQIPAAAFSLVTKDGQPVRYDMEVPDSGIDLQCTLAPDGSFAWSWRVKHGQLENRP [MAP3K14]	96.4 ± 1.2%	76.4 ± 1.8%	97.1 ± 0.15%	92.2 ± 0.5%	86.1 ± 1.7%	80.9 ± 2.1%
MLTELEKALNSIIDVYHKYSLIKGNFHAVYRDDLKKLLETECPQYIRKKGADVWFKELDINTDGAVNFQEFLILVIKMGVAAHKKSHEESHKE [S100A8]	80.1 ± 1.9%	54.4 ± 3.1%	91.3 ± 1.5%	92.37 ± 0.69%	82.1 ± 1.6%	89.4 ± 1%
MAATEISVLSEQFTKIKELELMPEKGLKEEEKDGVCREKDHRSPSELEAERTSGAFQDSVLEEEVELVLAPSEESEKYILTLQTVHFTSEAVELQDMSLLSIQQQEGVQVVVQQPGPGLLWLEEGPRQSLQQCVAISIQQELYSPQEMEVLQFHALEENVMVASEDSKLAVSLAETTGLIKLEEEQEKNQLLAERTKEQLFFVETMSGDERSDEIVLTVSNSNVEEQEDQPTAGQADAEKAKSTKNQRKTKGAKGTFHCDVCMFTSSRMSSFNRHMKTHTSEKPHLCHLCLKTFRTVTLLRNHVNTHTGTRPYKCNDCNMAFVTSGELVRHRRYKHTHEKPFKCSMCKYASVEASKLKRHVRSHTGERPFQCCQCSYASRDTYKLKRHMRTHSGEKPYECHICHTRFTQSGTMKIHILQKHGENVPKYQCPHCATIIARKSDLRVHMRNLHAYSAAELKCRYCSAVFHERYALIQHQKTHKNEKRFKCKHCSYACKQERHMTAHIRTHTGEKPFTCLSCNKCFRQKQLLNAHFRKYHDANFIPTVYKCSKCGKGFSRWINLHRHSEKCGSGEAKSAASGKGRRTRKRKQTILKEATKGQKEAAKGWKEAANGDEAAAEEASTTKGEQFPGEMFPVACRETTARVKEEVDEGVTCEMLLNTMDK [CTCFL]	95.5 ± 1.9%	68 ± 7.4%	97.4 ± 0.23%	95.98 ± 0.22%	88.6 ± 1.2%	86.4 ± 0.91%
MALEIHMSDPMCLIENFNEQLKVNQEALEILSAITQPVVVVAIVGLYRTGKSYLMNKLAGKNKGFSVASTVQSHTKGIWIWCVPHPNWPNHTLVLLDTEGLGDVEKADNKNDIQIFALALLLSSTFVYNTVNKIDQGAIDLLHNVTELTDLLKARNSPDLDRVEDPADSASFFPDLVWTLRDFCLGLEIDGQLVTPDEYLENSLRPKQGSDQRVQNFNLPRLCIQKFFPKKKCFIFDLPAHQKKLAQLETLPDDELEPEFVQQVTEFCSYIFSHSMTKTLPGGIMVNGSRLKNLVLTYVNAISSGDLPCIENAVLALAQRENSAAVQKAIAHYDQQMGQKVQLPMETLQELLDLHRTSEREAIEVFMKNSFKDVDQSFQKELETLLDAKQNDICKRNLEASSDYCSALLKDIFGPLEEAVKQGIYSKPGGHNLFIQKTEELKAKYYREPRKGIQAEEVLQKYLKSKESVSHAILQTDQALTETEKKKKEAQVKAEAEKAEAQRLAAIQRQNEQMMQERERLHQEQVRQMEIAKQNWLAEQQKMQEQQMQEQAAQLSTTFQAQNRSLLSELQHAQRTVNNDDPCVLL [GBP5]	95.4 ± 1.4%	60 ± 5.7%	97.28 ± 0.17%	96.34 ± 0.093%	87.3 ± 1.1%	86.3 ± 0.93%
MGILYSEPICQAAYQNDFGQVWRWVKEDSSYANVQDGFNGDTPLICACRRGHVRIVSFLLRRNANVNLKNQKERTCLHYAVKKKFTFIDYLLIILLMPVLLIGYFLMVSKTKQNEALVRMLLDAGVEVNATDCYGCTALHYACEMKNQSLIPLLLEARADPTIKNKHGESSLDIARRLKFSQIELMLRKAL [ANKRD22]	96.94 ± 0.72%	78.5 ± 1.2%	96.41 ± 0.47%	95.57 ± 0.16%	93.15 ± 0.2%	93.16 ± 0.36%
MNMTQARVLVAAVVGLVAVLLYASIHKIEEGHLAVYYRGGALLTSPSGPGYHIMLPFITTFRSVQTTLQTDEVKNVPCGTSGGVMIYIDRIEVVNMLAPYAVFDIVRNYTADYDKTLIFNKIHHELNQFCSAHTLQEVYIELFDQIDENLKQALQKDLNLMAPGLTIQAVRVTKPKIPEAIRRNFELMEAEKTKLLIAAQKQKVVEKEAETERKKAVIEAEKIAQVAKIRFQQKVMEKETEKRISEIEDAAFLAREKAKADAEYYAAHKYATSNKHKLTPEYLELKKYQAIASNSKIYFGSNIPNMFVDSSCALKYSDIRTGRESSLPSKEALEPSGENVIQNKESTG [ERLIN1]	94.6 ± 1.8%	79.2 ± 1.4%	95.84 ± 0.41%	94.53 ± 0.57%	91.74 ± 0.47%	91.63 ± 0.7%
PCTK2	97.15 ± 0.48%	70.7 ± 3.2%	96.52 ± 0.12%	94.42 ± 0.39%	83.84 ± 0.21%	86.8 ± 1.1%
MASGRARCTRKLRNWVVEQVESGQFPGVCWDDTAKTMFRIPWKHAGKQDFREDQDAAFFKAWAIFKGKYKEGDTGGPAVWKTRLRCALNKSSEFKEVPERGRMDVAEPYKVYQLLPPGIVSGQPGTQKVPSKRQHSSVSSERKEEEDAMQNCTLSPSVLQDSLNNEEEGASGGAVHSDIGSSSSSSSPEPQEVTDTTEAPFQGDQRSLEFLLPPEPDYSLLLTFIYNGRVVGEAQVQSLDCRLVAEPSGSESSMEQVLFPKPGPLEPTQRLLSQLERGILVASNPRGLFVQRLCPIPISWNAPQAPPGPGPHLLPSNECVELFRTAYFCRDLVRYFQGLGPPPKFQVTLNFWEESHGSSHTPQNLITVKMEQAFARYLLEQTPEQQAAILSLV [IRF9]	95.7 ± 1.1%	77.9 ± 2.2%	95.77 ± 0.51%	95.5 ± 0.37%	94.29 ± 0.52%	92.97 ± 0.35%
MFAKGKGSAVPSDGQAREKLALYVYEYLLHVGAQKSAQTFLSEIRWEKNITLGEPPGFLHSWWCVFWDLYCAAPERRDTCEHSSEAKAFHDYSAAAAPSPVLGNIPPNDGMPGGPIPPGFFQGPPGSQPSPHAQPPPHNPSSMMGPHSQPFMSPRYAGGPRPPIRMGNQPPGGVPGTQPLLPNSMDPTRQQGHPNMGGSMQRMNPPRGMGPMGPGPQNYGSGMRPPPNSLGPAMPGINMGPGAGRPWPNPNSANSIPYSSSSPGTYVGPPGGGGPPGTPIMPSPADSTNSSDNIYTMINPVPPGGSRSNFPMGPGSDGPMGGMGGMEPHHMNGSLGSGDIDGLPKNSPNNISGISNPPGTPRDDGELGGNFLHSFQNDNYSPSMTMSV [SSBP3]	63.1 ± 3.4%	3.95 ± 1.2%	94.42 ± 0.81%	95.08 ± 0.28%	83.27 ± 0.48%	54.1 ± 14%
MRSRLLLSVAHLPTIRETTEEMLLGGPGQEPPPSPSLDDYVRSISRLAQPTSVLDKATAQGQPRPPHRPAQACRKGRPAVSLRDITARFSGQQPTLPMADTVDPLDWLFGESQEKQPSQRDLPRRTGPSAGLWGPHRQMDSSKPMGAPRGRLCEARMPGHSLARPPQDGQQSSDLRSWTFGQSAQAMASRHRPRPSSVLRTLYSHLPVIHEL [C10orf10]	94.8 ± 1.7%	63.9 ± 6.1%	95.247 ± 0.086%	94.42 ± 0.28%	94.16 ± 0.87%	92.8 ± 0.27%
BTN3A3	82.3 ± 4%	57.5 ± 0.65%	93.48 ± 0.51%	95.55 ± 0.27%	90.09 ± 0.83%	89.4 ± 1.4%

From the supplement of paper PMC3353916
